“Also recorded” adds a separate entry of the source.
Columns and labels:
[1] = system: Swiss albino male mice; type: in vivo; settings: mice
From the text: (§1) Swiss albino male mice (˜20 g) were used for the in vivo toxicity study. Male Sprague-Dawley (SD) rats were used for electrocardiogram (ECG) monitoring (3-4 weeks old, ˜80-100 g) and the Langendorff isolated perfused heart experiments (8 weeks old, ˜250 g). Animals were acquired from the university Laboratory Animal Center (LAC) and were acclimatized to the Animal Holding Unit surroundings for at least 3 days prior to the experiments. Animals were kept under standard conditions with food and water available ad lib. All animal experiments were conducted according to the protocol (776/05a) approved by the Institutional Animal Care and Use Committee (IACUC) of the National University of Singapore.
(§2) The protein was dissolved in 200 μl of 0.9% NaCl (Braun, Malaysia) and administered through the intra-peritoneal (i.p.) route for the in vivo toxicity study in mice. Intra-tail vein (i.t.v.) administration was done in the ECG monitoring study in rats. The various protein doses were dissolved in 200 μl of 0.9% NaCl solution and injected into the tail vein using a 27 G ½ needle (Becton Dickinson, Franklin Lakes, N.J.) held at an angle of about 10° to the tail. The infusion was made very slowly and at a steady rate.
After purification of the protein from snake venom, i.p. doses of 1 mg/kg, 10 mg/kg and 100 mg/kg were administered to healthy male mice (three animals per group) and the symptoms were observed and recorded. 0.9% NaCl was injected as control. Postmortem examinations were conducted on the animals after their death/sacrifice.

[2] = system: extrinsic pathway of blood coagulation (human plasma); assay: Anticoagulant activity, prothrombin time; type: biochemical; settings: 50 μM protein per assay, vs control
Protocol: (§3) The anticoagulant activity of the purified protein was tested by two coagulation tests using a BBL fibrometer. Blood plasma was collected from healthy human volunteers.
Prothrombin time—The prothrombin times were measured according to the method of Quick (25). 100 μl of 50 mM Tris-HCl buffer (pH 7.4), 100 μl of plasma and 50 μl of the protein dissolved in the assay buffer were preincubated for 2 min at 37° C. Clotting was initiated by the addition of 150 μl of thromboplastin with calcium reagent (Sigma-Aldrich, St Louis, Mo.).

[3] = system: intrinsic pathway of blood coagulation (human plasma); assay: Anticoagulant activity, recalcification time; type: biochemical; settings: 50 μM protein per assay, vs control
Protocol: as §3
Recalcification time—The recalcification times were measured according to the method of Langdell et al. (26). 100 μl of 50 mM Tris-HCl buffer (pH 7.4), 100 μl of plasma and 50 μl of the protein dissolved in the assay buffer were preincubated for 2 min at 37° C. Clotting was initiated by the addition of 50 μl of 50 mM CaCl2.

[4] = system: anesthetized male rats; assay: Electrocardiogram monitoring and heart rate determination; type: in vivo, Sprague-Dawley rats; settings: i.t.v., 1 mg/kg, 10 min after administration (FIG. 8)
From the text: as §1, §2
For electrocardiogram (ECG) measurements, Sprague-Dawley rats were anesthetized with an i.p. dose of 7% chloral hydrate (5 ml/kg). […]

[5] = system: Langendorff isolated perfused rat hearts; assay: Langendorff isolated perfused heart; settings: 5 μM in KH solution, 10 min
Protocol: Rats were anesthetized with 7% chloral hydrate (5 ml/kg). 2 ml of 50 I.U. heparin (David Bull Laboratories, Warwick, UK) was injected i.p. 15 min prior to sacrificing the animal. The heart was excised rapidly and placed in oxygenated Krebs-Henseleit (KH) solution (in mM/1: NaCl 118.0, KCl 4.5, KH2PO4 1.4, MgSO4 1.2, NaHCO3 25, CaCl2 1.4 and glucose 11; pH 7.4) before the aorta was cannulated on the Langendorff apparatus. Non-recirculating mode of retrograde perfusion with KH solution was carried out at a constant flow (6-7 ml/min) at 37° C. The buffer was continuously bubbled with 95% O2 and 5% CO2. The hearts were allowed to equilibrate for 30 min and in study groups the buffer flow was switched to a second reservoir which contained 5 μM of the protein dissolved in KH solution, plain KH solution was passed for further 15 min in case of control group.
A water-filled latex balloon was attached to a pressure transducer and inserted through the mitral valve into the left ventricle (LV) through an incision in the left atrium. The pressure transducer was connected to a Powerlab (ADInstruments, Castle Hill, NSW, Australia) data recording system. The following indices of cardiac performance were measured and averaged from ten beats for each condition: heart rate (HR, in beats/min) and left ventricle diastolic end pressure (LVDEP, in mmHg), which is an index of contractile activity. […]

B1: β-cardiotoxin: three-finger toxin protein isolated from Ophiophagus hannah (king cobra) venom, SEQ ID No.3, β-adrenergic receptor blocker (protein)
chain: RKCLNTPLPLIYTTCPIGQDKCVKMTIKKLPSKYDVIRGCIDICPKSSADVEVLCCDTNKCNK
postmortem examination ([1]; i.p., 100 mg/kg): did not reveal any hemorrhage or visual damage to internal organs
time to death ([1]; i.p., 100 mg/kg): about 30 min
dose up to which the protein was not lethal ([1]; intraperitoneal): ≤ 10 mg/kg
change in clotting time, prothrombin time [2]: does not show any hemolytic or anticoagulant activity; also recorded: did not cause any significant changes in the clotting time
change in clotting time, recalcification time [3]: does not show any hemolytic or anticoagulant activity; also recorded: did not cause any significant changes in the clotting time
change in heart rate (ECG) [4]: dose-dependent decrease of the heart rate; also recorded: decrease in the heart rate; also recorded: dose-dependent decrease in heart rate
change in contractility (LVDEP) [5]: without any significant change in the contractility; also recorded: without affecting the contractility
change in heart rate [5]: dose-dependent decrease of the heart rate; also recorded: marked reduction in the heart rate

From US20100062980A1, “THERAPEUTIC USES OF BETA-ANTAGONISTS” (priority 2006, published 2010)
